# Experimental data: publication PMC4802042 (2016)
# B1: MKP7 catalytic domain (MKP7-CD, residues 156-301) [human] / GST-JNK1 (wild type) [human] (parent complex)
# chain 1: NIGPTRILPNLYLGCQRDVLNKELMQQNGIGYVLNASNTCPKPDFIPESHFLRVPVNDSFCEKILPWLDKSVDFIEKAKASNGCVLVHCLAGISRSATIAIAYIMKRMDMSLDEAYRFVKEKRPTISPNFNFLGQLLDYEKKIKNQ
# chain 2: MSRSKRDNNFYSVEIGDSTFTVLKRYQNLKPIGSGAQGIVCAAYDAILERNVAIKKLSRPFQNQTHAKRAYRELVLMKCVNHKNIIGLLNVFTPQKSLEEFQDVYIVMELMDANLCQVIQMELDHERMSYLLYQMLCGIKHLHSAGIIHRDLKPSNIVVKSDCTLKILDFGLARTAGTSFMMTPYVVTRYYRAPEVILGMGYKENVDIWSVGCIMGEMIKGGVLFPGTDHIDQWNKVIEQLGTPCPEFMKKLQPTVRTYVENRPKYAGYSFEKLFPDVLFPADSEHNKLKASQARDLLSKMLVIDASKRISVDEALQHPYINVWYDPSEAEAPPPKIPDKQLDEREHTIEEWKELIYKEVMDLLE
# B2: MKP5 catalytic domain (MKP5-CD, residues 320-467) [human] / GST-JNK1 (wild type) [human] (parent complex)
# chain 1: AELTPILPFLFLGNEQDAQDLDTMQRLNIGYVINVTTHLPLYHYEKGLFNYKRLPATDSNKQNLRQYFEEAFEFIEEAHQCGKGLLIHCQAGVSRSATIVIAYLMKHTRMTMTDAYKFVKGKRPIISPNLNFMGQLLEFEEDLNNGVT
# chain 2: B1 chain 2
# Variants of: B1
# Assay: GST pull-down; parent: 100; read off a plot
row,Variant,percent of parent
1,chain 2 V260D,~8 % of wild-type JNK1
2,chain 2 I231D,~37 % of wild-type JNK1
3,chain 2 T255A,~30 % of wild-type JNK1
4,chain 2 R263A,~73 % of wild-type JNK1
5,chain 2 I197D,~88 % of wild-type JNK1
6,chain 2 Q253A,~92 % of wild-type JNK1
7,chain 2 D229A,~5 % of wild-type JNK1
8,chain 2 H230D,~96 % of wild-type JNK1
9,chain 2 T228A,~72 % of wild-type JNK1

# Variants of: B2
# Assay: GST pull-down; parent: 100; read off a plot
row,Variant,percent of parent
1,chain 2 I231D,~28 % of wild-type JNK1
2,chain 2 T255A,~43 % of wild-type JNK1
3,chain 2 R263A,~98 % of wild-type JNK1
4,chain 2 I197D,~49 % of wild-type JNK1
5,chain 2 Q253A,~67 % of wild-type JNK1
6,chain 2 H230D,~98 % of wild-type JNK1
7,chain 2 T228A,~88 % of wild-type JNK1
